The results in this text go back to article doi:10.1101/354001.

Assay in all cases: SEC + other: SDS-PAGE
Assay [1] concerns the target Δ(185-243) WT apoA-I (globular domain, residues 1-184, of human apolipoprotein A-I) (human).
Assay [2] addresses Δ(185-243) Phe71Tyr apoA-I (globular domain, residues 1-184) (human).
In assay [3] the target is Δ(185-243) Leu159Arg apoA-I (globular domain, residues 1-184) (human).
Assay [4] addresses Δ(185-243) Glu34Lys apoA-I (globular domain, residues 1-184) (human).

For the substance “Δ(185-243) WT apoA-I (globular domain, residues 1-184, of human apolipoprotein A-I) (domain or fragment)”, the stoichiometry N in assay [1] turned out to be 2.

For the substance “Δ(185-243) Phe71Tyr apoA-I (globular domain, residues 1-184) (domain or fragment)”, the stoichiometry N in assay [2] came out at 2. With “Δ(185-243) Leu159Arg apoA-I (globular domain, residues 1-184) (domain or fragment)”, the stoichiometry N in assay [3] was found to be 2. As for “Δ(185-243) Glu34Lys apoA-I (globular domain, residues 1-184) (domain or fragment)”, in assay [4], the stoichiometry N was found to be 2.

By stoichiometry N is commonly meant a count of units in the complex or per binding partner.
